Consider seven compounds from patent publication US11220526B2, “Neuropeptide S receptor (NPSR) agonists” (Research Triangle Institute, priority 2016, dated 2022).

Square brackets hold non-standard residues; d marks the D form. Peptide text beside a SMILES is read from it. * marks the point of attachment. Phe(4-Cl) = N[C@@H](Cc1ccc(Cl)cc1)C(=O)O; Lys(Me2) = CN(C)CCCC[C@H](N)C(=O)O; Bz = O=C(c1ccccc1)*

The subject of one assay is C57BL/6 mice. The assay is described as follows: Locomotor activity (horizontal, vertical, stereotypic) after i.c.v. injection. It is filed as in vivo. On the procedure: Male C57BL/6 mice (National Cancer Institute, Bethesda, Md., or Charles River Laboratories, Wilmington, Mass.), age 8-12 weeks, were group-housed (4 animals per cage) under controlled conditions (temperature 21 f 2° C.; relative humidity 50-60%; 12-hour light-dark cycle, lights on 6:00 AM) with free access to food and water. For intracerebroventricular (i.c.v.) drug injections, mice were briefly anesthetized with isofluorane. NPS was dissolved in phosphate-buffered saline (PBS, pH 7.4) containing 0.1% bovine serum albumin and injected i.c.v. (total volume: 2 μl) as described before (Xu et al., 2004). NPSR antagonist compounds were dissolved in PBS containing 10% Cremophor EL (Sigma) and 100 μl were injected intraperitoneally (i.p.).
Locomotion of mice was monitored in an automated activity system equipped with infrared sensors for both horizontal and vertical activity measurements (Versamax, Accuscan Inc., Columbus, Ohio). Male C57BL/6 mice were allowed to habituate to the recording chamber for 1 h. Vehicle or NPSR antagonist compound (in PBS, 10% cremophor EL) were injected i.p. 10 minutes before central administration of either NPS (1 nmole in 2 μl PBS, 0.1% BSA) or vehicle (PBS, 0.1% BSA). […] Horizontal activity represents infrared beam breaks in the X and Y dimension, while vertical activity was recorded by infrared sensors located 8 cm above the chamber floor (Z dimension). […]

The conditions of assay [1]: NPS administration; cited from earlier work.
The target in a further assay is T1, NPSR-C-Alt (Homo sapiens, UniProt Q6W5P4).
T1 sequence (Q6W5P4 1-377 isoform Q6W5P4-4): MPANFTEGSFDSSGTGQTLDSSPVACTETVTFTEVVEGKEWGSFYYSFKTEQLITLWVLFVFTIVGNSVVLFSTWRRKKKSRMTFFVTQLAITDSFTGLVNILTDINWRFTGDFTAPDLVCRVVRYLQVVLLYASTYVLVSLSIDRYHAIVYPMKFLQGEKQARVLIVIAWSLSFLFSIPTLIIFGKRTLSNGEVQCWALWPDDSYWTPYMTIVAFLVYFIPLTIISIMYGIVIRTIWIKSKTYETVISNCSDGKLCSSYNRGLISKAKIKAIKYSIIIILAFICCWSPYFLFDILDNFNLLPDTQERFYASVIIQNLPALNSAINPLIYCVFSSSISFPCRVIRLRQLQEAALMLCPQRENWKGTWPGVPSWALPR
Particulars: functional assay; cited from earlier work.

The target of the next assay is T2, NPSR (Homo sapiens, UniProt Q6W5P4).
T2 sequence (Q6W5P4 1-371): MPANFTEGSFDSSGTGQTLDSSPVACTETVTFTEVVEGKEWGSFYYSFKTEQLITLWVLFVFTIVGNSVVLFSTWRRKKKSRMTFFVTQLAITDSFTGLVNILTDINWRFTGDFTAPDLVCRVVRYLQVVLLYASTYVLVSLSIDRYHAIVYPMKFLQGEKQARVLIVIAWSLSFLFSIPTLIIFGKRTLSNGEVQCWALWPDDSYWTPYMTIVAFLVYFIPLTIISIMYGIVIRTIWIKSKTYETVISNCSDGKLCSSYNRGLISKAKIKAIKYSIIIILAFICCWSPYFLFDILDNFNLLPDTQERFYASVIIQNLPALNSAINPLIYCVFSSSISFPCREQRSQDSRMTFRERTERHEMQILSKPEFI
Particulars: Bernier et al. 2006; cited from earlier work.

Consider `CN(C)CCCC[C@H](NC(=O)[C@H](Cc1ccc(Cl)cc1)NC(=O)c1ccccc1)C(=O)N[C@@H](CC(N)=O)C(N)=O` [Example R06039-398] (Bz-[Phe(4-Cl)]-[Lys(Me2)]-Asn-NH2), for which, in the assay on C57BL/6 mice (icv administration, male C57BL/6 mice, 90 minutes recording), the “cumulative activities (horizontal, vertical, stereotypic) measured” value is reported as “increasing with dose”.

For `O=C(NCCN1CCCCC1)N1CCN2C(=O)OC(c3ccccc3)(c3ccccc3)C2C1` (centres unmarked) [RTI-11817-163], the “effect on R06039-398 mediated increases in horizontal and vertical activity” value in the assay with C57BL/6 mice (antagonist added to icv R06039-398, mice) is “reverses”.

With “SFRNGVGTGMKKTSFQRAKS [hNPS, 20 residue peptide, endogenous ligand of the neuropeptide S receptor]”, the “performance in novel recognitions assays” value in assay [1] is recorded as “dose-dependently improved performance”. Also, the “potency at NPSR-C-Alt versus the 107I variant” value in the assay with NPSR-C-Alt is 30 fold lower.

For the compound “peptide 1-6: NPS with the C-terminal 14 residues removed (SFRNGV; Neuropeptide S; UniProt P0C0P6 70-75, looked up, fragment)”, in the assay with NPSR, the “effect of truncation on NPSR activation” value is recorded as “limited effect on the potency”.

On to “peptide 2-20: NPS with Ser-1 removed (FRNGVGTGMKKTSFQRAKS; Neuropeptide S; UniProt P0C0P6 71-89, looked up, fragment)”, for which, in the assay with NPSR, the “effect of truncation on NPSR activation” value is “detrimental to function”.

For the compound “peptide 3-20: NPS with the first two NH2-terminal residues removed (RNGVGTGMKKTSFQRAKS; Neuropeptide S; UniProt P0C0P6 72-89, looked up, fragment)”, the “effect of truncation on NPSR activation” value with NPSR was “largely inactive”.

Turning to “peptide 4-20: NPS with the first three NH2-terminal residues removed (NGVGTGMKKTSFQRAKS; Neuropeptide S; UniProt P0C0P6 73-89, looked up, fragment)”, in the assay with NPSR, the “effect of truncation on NPSR activation” value is “largely inactive”.
